For the assay, the target named is T1, FedF_(15–165), N-terminal lectin domain of the F18 fimbrial tip adhesin FedF (Escherichia coli (F18-fimbriated …, NT647 on surface exposed amine groups (in the MST only))).
T1 construct: also called FedF lectin domain
T1 chain: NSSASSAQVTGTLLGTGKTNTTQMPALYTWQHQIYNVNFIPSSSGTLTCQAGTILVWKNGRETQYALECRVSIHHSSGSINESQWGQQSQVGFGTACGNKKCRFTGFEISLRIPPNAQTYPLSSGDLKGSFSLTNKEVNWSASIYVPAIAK
The experiment in a line: MST. To be noted: both partners purified.

B1: NbFedF6 (VHH)
VHH: QVQLQESGGGSVQAGGSLRLSCAASGYTSGRDSMGWFRQAPGKEREGVACIDTSGIVNYADSVKGRFTISQDSAKKTLYLEMNSLKPEDTALYSCATGPFVYGRGCLGQAFYSYWGQGTQVTVSS
notes: source: E. coli WK6, periplasmic extract, purified (Ni-NTA); not shown: His6, C-terminal, kept
A word on the Kd: it is the concentration at which binding is half-saturated. Read a low Kd as higher affinity. Regarding B1, the dissociation constant (Kd) was found to be 3.57 nM.

B2: NbFedF9 (VHH)
VHH: QVQLQESGGGSVQAGGSLRLSCAASGYTYSSNCMAWFRQVPGKEREGVASINTRGGITYYADSVKGRFTISRDNAKNTVSLQMNSLKPEDTATYYCAAVREATYSDNRCSVRSYTYDYWGQGTQVTVSS
notes: as for B1
B2 displayed a Kd of 1.58 nM.

B3: NbFedF7 (VHH)
VHH: QVQLQESGGGSVQAGGSLRLSCTASGYTYRKYCMGWFRQAPGKEREGVACINSGGGTSYYADSVKGRFTISQDNAKDTVFLRMNSLKPEDTAIYYCALSSNSVCPPGHVAWYNDWGQGTQVTVSS
notes: as for B1
B3 returned a Kd of 5.25 nM.

B4: NbFedF12 (VHH)
VHH: QVQLQESGGGSVQAGGSLRLSCAASGNTKSYWMGWFRQAPGKEREGVAVIAGGGAFTYYAESVKGRFTISQDNTKDTVYLAMNSLKPEDTALYYCALRTLNNGGIFLLNSPSSFHYWGQGTQVTVSS
notes: source: E. coli WK6, periplasmic extract, purified (Ni-NTA)
With B4, binding was characterised by a dissociation constant (Kd) of 29 nM.

For the origin of these results see PMC4263667, “Nanobody Mediated Inhibition of Attachment of F18 Fimbriae Expressing Escherichia coli” (PLoS ONE, 2014).
